Source: publication PMC10932109, “Solution Structures of Two Different FRP-OCP Complexes as Revealed via SEC-SANS” (International Journal of Molecular Sciences, 2024)
Where “and” joins values, the source holds several entries; their conditions need not be identical. Equal values may be shown once.

How the values were obtained:
[1] = molecular target: OCPO (Synechocystis sp. PCC 6803) (UniProt P74102); conditions: cited from earlier work
[2] = molecular target: OCPR (Synechocystis sp. PCC 6803) (UniProt P74102); conditions: cited from earlier work
[3] = molecular target: the molecule itself; test: SEC + other: SANS; in-line SEC-SANS at D22 (ILL); Superdex 200 Increase 10/300 GL; 25 °C; 250 µL injected at about 5 mg/mL total protein; two fractions (high MW, low MW) analysed separately; stoichiometries assigned from dimensions, DAMMIF shapes and Pepsi-SANS FlexFit models
[4] = molecular target: T1, orange carotenoid protein lacking the N-terminal extension (^∆NTEOCP^O) (Synechocystis sp. PCC 6803, UniProt P74102 13-317); test: as above; conditions: both partners purified
T1 construct: glycine left from the human rhinovirus 3C protease site (LEVLFQ/GP) after cleavage; the P of GP is read as Pro13 of OCP; Orange carotenoid protein (OCP), Synechocystis sp; PCC 6803, slr1963, from Pro13 (P-NTLAA...) to the C-terminus; the N-terminal extension is removed with the His-tag by 3C cleavage; Gene optimised for E. coli, vector pRSFDuet-1; also called ^ΔNTEOCP^O; compact mutant of OCP …
T1 sequence: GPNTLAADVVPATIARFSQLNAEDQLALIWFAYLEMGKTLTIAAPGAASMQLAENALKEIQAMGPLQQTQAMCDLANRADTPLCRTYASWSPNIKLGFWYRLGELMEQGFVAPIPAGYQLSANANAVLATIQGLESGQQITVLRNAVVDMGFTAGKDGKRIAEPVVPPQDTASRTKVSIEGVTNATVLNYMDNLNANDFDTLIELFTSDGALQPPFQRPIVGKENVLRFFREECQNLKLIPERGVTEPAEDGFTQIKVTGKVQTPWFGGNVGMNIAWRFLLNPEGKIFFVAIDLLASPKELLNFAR

FRP (from UniProt P74103)
Kd [1]: 35 µM
Kd [2]: 3 µM

B1: fluorescence recovery protein (FRP), wild type (natural protein, Synechocystis sp. PCC 6803)
chain: LQTAEAPWSQAETQSAHALFRKAYQRELDGLLATVQAQASQITQIDDLWKLHDFLSAKRHEIDGKYDDRQSVIIFVFAQLLKEGLVQAEELTFLAADKQSKIKALARL
notes: Fluorescence recovery protein (FRP), Synechocystis sp; PCC 6803, slr1964, wild type; also called wild-type FRP; dimeric FRP; source: E. coli, purified (Superdex 200 Increase 10/300, phosphate-buffered saline)
binding result [3]: binds
stoichiometry N [4]: 2 FRP per ^∆NTEOCP^O (2:1 complex, low MW fraction) and 1 FRP per ^∆NTEOCP^O (2:2 complex, high MW fraction)
